First the molecules themselves.
B3: cleaved FasL (cFasL), spontaneously cleaved membrane FasL (ligand, human, UniProt P48023 127-281, looked up)
chain: LEKQIGHPSPPPEKKELRKVAHLTGKSNSRSMPLEWEDTYGIVLLSGVKYKKGGLVINETGLYFVYSKVYFRGQSCNNLPLSHKVYMRNSKYPQDLVMMEGKMMSYCTTGQMWARSSYLGAVFNLTSADHLYVNVSELSLVNFEESQTFFGLYKL
notes: human FasL, soluble product of the metalloprotease cleavage between amino acids 126 and 127; the C-terminal end 281 is the one printed for the extracellular domain; Homotrimer by gel filtration; also called sFasL; metalloprotease-cleaved FasL; source: COS cells transfected with wild-type FasL, supernatant (spontaneously cleaved by a metalloprotease); for SPR in serum-free medium, concentrated 100 …
B5: Recombinant Fas-Fc (Fc fusion, UniProt P25445 26-173, looked up)
chain: QVTDINSKGLELRKTVTTVETQNLEGLHHDGQFCHKPCPPGERKARDCTVNGDEPDCVPCQEGKEYTDKAHFSSKCRRCRLCDEGHGLEVEINCTRTQNTKCRCKPNFFCNSTVCEHCDPCTKCEHGIIKECTLTSNTKCKEEGSRSN
notes: Fas (CD95/APO-1) part of a bought recombinant Fas-Fc; The reagents section also names a laboratory-made Fas-Fc purified on protein A; the SPR methods name the R&D Systems protein; source: bought: R&D Systems

Series [1] deals with the molecule itself. Nature of the series: SEC; gel filtration on Sephacryl S-200-HR and S-300-HR columns; concentrated COS supernatants, eluted in PBS at 0.3 ml/min; FasL in the fractions found by ELISA; size of the oligomer of the FasL construct.
Series [2] concerns the target B5. Nature of the series: SPR; BIAcore 3000; Fas-Fc covalently coupled to a CM5 flow cell (2,000 RU); FasL constructs as concentrated, dialysed COS supernatants flowed over (0.2-100 nM IgFasL, 0.2-44 nM cFasL, 0.2-37.5 nM D2FasL, 0.25-8 nM D1IgD2FasL) in Hepes-buffered saline, 30 ul/min; 5 min association, 11 min dissociation; BIAeval 4.1. Particulars: one partner purified.

Series [3] addresses B3. The series is described as above. Particulars: one partner purified.

Five molecules from publication PMC3541234, “Functional Characterization of a Chimeric Soluble Fas Ligand Polymer with In Vivo Anti-Tumor Activity” (PLoS ONE, 2013) can be followed below.

“And” between values parts separate entries of the source, which are not always exact repeats. Equal values may be shown once.

B1: D2FasL (D2 module of gp190 fused to the extracellular domain of hFasL) (ligand, UniProt P42702 329-542, looked up)
chain: AGYPPDTPQQLNCETHDLKEIICSWNPGRVTALVGPRATSYTLVESFSGKYVRLKRAEAPTNESYQLLFQMLPNQEIYNFTLNAHNPLGRSQSTILVNITEKVYPHTPTSFKVKDINSTAVKLSWHLPGNFAKINFLCEIEIKKSNSVQEQRNVTIKGVENSSYLVALDKLNPYTLYTFRIRCSTETFWKWSKWSNKKQHLTTEASPSKGPDTWQKELAELRESTSQMHTASSLEKQIGHPSPPPEKKELRKVAHLTGKSNSRSMPLEWEDTYGIVLLSGVKYKKGGLVINETGLYFVYSKVYFRGQSCNNLPLSHKVYMRNSKYPQDLVMMEGKMMSYCTTGQMWARSSYLGAVFNLTSADHLYVNVSELSLVNFEESQTFFGLYKL
notes: extracellular domain of human FasL (hFasL), amino acids 108 to 281; source: COS cells, transiently transfected (pED4 vector), supernatant; for SPR in Opti-MEM, concentrated 100 times, dialysed against PBS
In the case of B1, in series [1], the “stoichiometry N” value stood at 6. Moreover, in series [2], the Kd is 38.5 nM, the koff came to 0.006 s⁻¹ and the on-rate (kon) was 160000 M⁻¹ s⁻¹.

B2: D1IgD2FasL (D1IgD2 modules of gp190 fused to the extracellular domain of hFasL) (ligand, UniProt P42702 49-542, looked up)
chain: APHDLKCVTNNLQVWNCSWKAPSGTGRGTDYEVCIENRSRSCYQLEKTSIKIPALSHGDYEITINSLHDFGSSTSKFTLNEQNVSLIPDTPEILNLSADFSTSTLYLKWNDRGSVFPHRSNVIWEIKVLRKESMELVKLVTHNTTLNGKDTLHHWSWASDMPLECAIHFVEIRCYIDNLHFSGLEEWSDWSPVKNISWIPDSQTKVFPQDKVILVGSDITFCCVSQEKVLSALIGHTNCPLIHLDGENVAIKIRNISVSASSGTNVVFTTEDNIFGTVIFAGYPPDTPQQLNCETHDLKEIICSWNPGRVTALVGPRATSYTLVESFSGKYVRLKRAEAPTNESYQLLFQMLPNQEIYNFTLNAHNPLGRSQSTILVNITEKVYPHTPTSFKVKDINSTAVKLSWHLPGNFAKINFLCEIEIKKSNSVQEQRNVTIKGVENSSYLVALDKLNPYTLYTFRIRCSTETFWKWSKWSNKKQHLTTEASPSKGPDTWQKELAELRESTSQMHTASSLEKQIGHPSPPPEKKELRKVAHLTGKSNSRSMPLEWEDTYGIVLLSGVKYKKGGLVINETGLYFVYSKVYFRGQSCNNLPLSHKVYMRNSKYPQDLVMMEGKMMSYCTTGQMWARSSYLGAVFNLTSADHLYVNVSELSLVNFEESQTFFGLYKL
notes: as for B1
Take B2: in series [1], the “stoichiometry N” value is 6. For the same molecule, in series [2], the equilibrium dissociation constant (Kd) worked out at 25.6 nM, the koff is 0.0033 s⁻¹ and the on-rate (kon) turned out to be 130000 M⁻¹ s⁻¹.
Turning to B3, the “stoichiometry N” value in series [1] is 3.

B4: pFasL (polymeric soluble FasL; IgFasL chimera: Ig module of gp190 fused to the extracellular domain of hFasL) (ligand, UniProt P42702 246-328, looked up)
chain: WIPDSQTKVFPQDKVILVGSDITFCCVSQEKVLSALIGHTNCPLIHLDGENVAIKIRNISVSASSGTNVVFTTEDNIFGTVIFQKELAELRESTSQMHTASSLEKQIGHPSPPPEKKELRKVAHLTGKSNSRSMPLEWEDTYGIVLLSGVKYKKGGLVINETGLYFVYSKVYFRGQSCNNLPLSHKVYMRNSKYPQDLVMMEGKMMSYCTTGQMWARSSYLGAVFNLTSADHLYVNVSELSLVNFEESQTFFGLYKL
notes: Ig-like (Ig) module of the LIF receptor gp190, amino acids 246 to 328; extracellular domain of human FasL (hFasL), amino acids 108 to 281; source: COS cells, transiently transfected (pED4 vector), supernatant; for SPR in Opti-MEM, concentrated 100 times, dialysed against PBS; copies: 12
As to B4, the “stoichiometry N” value in series [1] is 12 and 6. Further, in series [2], the Kd turned out to be 11.6 nM, the off-rate (koff) was determined as 0.00041 s⁻¹ and the on-rate constant (kon) turned out to be 25000 M⁻¹ s⁻¹.
In series [3], B5 yielded a Kd of 69.4 nM, a koff of 0.0059 s⁻¹ and a kon of 84000 M⁻¹ s⁻¹.
